# Tests used:
# [1] = target: CEA (carcinoembryonic antigen) (UniProt P06731); experiment: competitive ELISA on CEA, competitor anti-CEA monoclonal antibody; bsctDb as culture supernatant
# lysozyme (antigen) = lysozyme (antigen) (UniProt P00698); experiment: competitive ELISA on lysozyme, competitor anti-lysozyme Fab antibody fragment; bsctDb as culture supernatant
substance,measurement,setting,value
D1.3-A5B7 bispecific single chain tetravalent diabody (bispecific antibody),% Inhibition in CEA Competition ELISA,[1],100%
same,% Inhibition in D1.3 Competition ELISA,lysozyme (antigen),100%
